The results in this text go back to the supplement of paper PMC11246515.

The data set in a line: total protein half-life in vivo (active degradation + dilution); higher = more stable protein.
Setting [1] is: wild type E. coli NCM3722, growth: N-lim chemostat, doubling time 6 h.
[2] abbreviates: E. coli NCM3722 delta-clpP delta-lon delta-hslV, growth: N-lim chemostat, doubling time 6 h.
The mark [3] stands for this setting: E. coli NCM3722 delta-clpP, growth: N-lim chemostat, doubling time 6 h.
[4] abbreviates: E. coli NCM3722 delta-hslV, growth: N-lim chemostat, doubling time 6 h.
The mark [5] stands for this setting: E. coli NCM3722 delta-lon, growth: N-lim chemostat, doubling time 6 h.
The mark [6] stands for this setting: E. coli NCM3722 delta-smpB, growth: N-lim chemostat, doubling time 6 h.
[7] abbreviates: wild type E. coli NCM3722, growth: C-lim chemostat, doubling time 3 h.
[8] abbreviates: wild type E. coli NCM3722, growth: C-lim chemostat, doubling time 6 h.
[9] abbreviates: wild type E. coli NCM3722, growth: C-lim chemostat, doubling time 12 h.
Setting [10] is: wild type E. coli NCM3722, growth: N-lim chemostat, doubling time 12 h.
Where [11] appears, read: wild type E. coli NCM3722, growth: P-lim chemostat, doubling time 6 h.
Setting [12] is: wild type E. coli NCM3722, growth: P-lim chemostat, doubling time 12 h.

± gives the standard deviation of the averaged measurements.

For “MTKVLLSHPPRPASHNSSRAMVWVRKNLFSSWSNSLLTIGCIWLMWELIPPLLNWAFLQANWVGSTRADCTKAGACWVFIHERFGQFMYGLYPHDQRWRINLALLIGLVSIAPMFWKILPHRGRYIAAWAVIYPLIVWWLMYGGFFALERVETRQWGGLTLTLIIASVGIAGALPWGILLALGRRSHMPIVRILSVIFIEFWRGVPLITVLFMSSVMLPLFMAEGTSIDKLIRALVGVILFQSAYVAEVVRGGLQALPKGQYEAAESLALGYWKTQGLVILPQALKLVIPGLVNTIIALFKDTSLVIIIGLFDLFSSVQQATVDPAWLGMSTEGYVFAALIYWIFCFSMSRYSQYLEKRFNTGRTPH”, under setting [1], the “total protein half-life in vivo” value stood at 4.17 h.

In the case of “MNRTILVPIDISDSELTQRVISHVEEEAKIDDAEVHFLTVIPSLPYYASLGLAYSAELPAMDDLKAEAKSQLEEIIKKFKLPTDRVHVHVEEGSPKDRILELAKKIPAHMIIIASHRPDITTYLLGSNAAAVVRHAECSVLVVR”, the “total protein half-life in vivo” value is, setting by setting: under setting [2], 5.69 ± 1.3 h; under setting [3], 4.76 ± 0.38 h; under setting [4], 6.17 ± 2.1 h; under setting [5], 3.98 ± 0.51 h; under setting [6], 4.47 ± 0.24 h; under setting [7], 3.61 ± 0.042 h. Moreover, the “total protein half-life in vivo” value reads like this: under setting [8], 5.75 ± 0.62 h; under setting [9], 10.3 ± 1.1 h; under setting [1], 4.7255 ± 0.0038 h; under setting [10], 7.83 ± 0.48 h; under setting [11], 5.521 ± 0.026 h; under setting [12], 9.62 ± 1 h.

For the sequence “MRRLPGILLLTGAALVVIAALLVSGLRIALPHLDAWRPEILNKIESATGMPVEASQLSASWQNFGPTLEAHDIRAELKDGGEFSVKRVTLALDVWQSLLHMRWQFRDLTFWQLRFRTNTPITSGGSDDSLEASHISDLFLRQFDHFDLRDSEVSFLTPSGQRAELAIPQLTWLNDPRRHRAEGLVSLSSLTGQHGVMQVRMDLRDDEGLLSNGRVWLQADDIDLKPWLGKWMQDNIALETAQFSLEGWMTIDKGDVTGGDVWLKQGGASWLGEKQTHTLSVDNLTAHITRENPGWQFSIPDTRITMDGKPWPSGALTLAWIPEQDVGGKDNKRSDELRIRASNLELAGLEGIRPLAAKLSPALGDVWRSTQPSGKINTLALDIPLQAADKTRFQASWSDLAWKQWKLLPGAEHFSGTLSGSVENGLLTASMKQAKMPYETVFRAPLEIADGQATISWLNNNKGFQLDGRNIDVKAKAVHARGGFRYLQPANDEPWLGILAGISTDDGSQAWRYFPENLMGKDLVDYLSGAIQGGEADNATLVYGGNPQLFPYKHNEGQFEVLVPLRNAKFAFQPDWPALTNLDIELDFINDGLWMKTDGVNLGGVRASNLTAVIPDYSKEKLLIDADIKGPGKAVGPYFDETPLKDSLGATLQELQLDGDVNARLHLDIPLNGELVTAKGEVTLRNNSLFIKPLDSTLKNLSGKFSFINSDLQSEPLTASWFNQPLNVDFSTKEGAKAYQVAVNLNGNWQPAKTGVLPEAVNEALSGSVAWDGKVGIDLPYHAGATYNIELNGDLKNVSSHLPSPLAKPAGEPLAVNVKVDGNLNSFELTGQAGADNHFNSRWLLGQKLTLDRAIWAADSKTLPPLPEQSGVELNMPPMNGAEWLALFQKGAAESVGGAASFPQHITLRTPMLSLGNQQWNNLSIVSQPTANGTLVEAQGREINATLAMRNNAPWLANIKYLYYNPSVAKTRGDSTPSSPFPTTERINFRGWPDAQIRCTECWFWGQKFGRIDSDITISGDTLTLTNGLIDTGFSRLTADGEWVNNPGNERTSLKGKLRGQKIDAAAEFFGVTTPIRQSSFNVDYDLHWRKAPWQPDEATLNGIIHTQLGKGEITEINTGHAGQLLRLLSVDALMRKLRFDFRDTFGEGFYFDSIRSTAWIKDGVMHTDDTLVDGLEADIAMKGSVNLVRRDLNMEAVVAPEISATVGVAAAFAVNPIVGAAVFAASKVLGPLWSKVSILRYHISGPLDDPQINEVLRQPRKEKAQ”, the “total protein half-life in vivo” value under setting [2] turned out to be 6.25 ± 0.48 h; the “total protein half-life in vivo” value under setting [3] was found to be 6.38 ± 0.3 h; the “total protein half-life in vivo” value under setting [4] came to 6.18 ± 0.12 h; the “total protein half-life in vivo” value under setting [5] turned out to be 6.21 ± 0.18 h; the “total protein half-life in vivo” value under setting [6] turned out to be 5.844 ± 0.013 h; the “total protein half-life in vivo” value under setting [7] turned out to be 3.185 ± 0.015 h. Also, the “total protein half-life in vivo” value was 6.62 ± 0.46 h under setting [8]; 12.6 ± 0.73 h under setting [9]; 6.11 ± 0.16 h under setting [1]; 12.2 ± 1.2 h under setting [10]; 5.67 ± 0.26 h under setting [11]; 9.67 ± 1.6 h under setting [12].

Take “MTNITKRSLVAAGVLAALMAGNVALAADVPAGVTLAEKQTLVRNNGSEVQSLDPHKIEGVPESNISRDLFEGLLVSDLDGHPAPGVAESWDNKDAKVWTFHLRKDAKWSDGTPVTAQDFVYSWQRSVDPNTASPYASYLQYGHIAGIDEILEGKKPITDLGVKAIDDHTLEVTLSEPVPYFYKLLVHPSTSPVPKAAIEKFGEKWTQPGNIVTNGAYTLKDWVVNERIVLERSPTYWNNAKTVINQVTYLPIASEVTDVNRYRSGEIDMTNNSMPIELFQKLKKEIPDEVHVDPYLCTYYYEINNQKPPFNDVRVRTALKLGMDRDIIVNKVKAQGNMPAYGYTPPYTDGAKLTQPEWFGWSQEKRNEEAKKLLAEAGYTADKPLTINLLYNTSDLHKKLAIAASSLWKKNIGVNVKLVNQEWKTFLDTRHQGTFDVARAGWCADYNEPTSFLNTMLSNSSMNTAHYKSPAFDSIMAETLKVTDEAQRTALYTKAEQQLDKDSAIVPVYYYVNARLVKPWVGGYTGKDPLDNTYTRNMYIVKH”: the “total protein half-life in vivo” value runs as follows: under setting [2], 5.05 ± 0.41 h; under setting [3], 5.96 ± 0.98 h; under setting [4], 6.62 ± 0.85 h; under setting [5], 6.25 ± 0.66 h; under setting [6], 6.01 ± 0.075 h; under setting [7], 3.13 ± 0.1 h. The “total protein half-life in vivo” value turned out to be 6.215 ± 0.047 h under setting [8]; 12.7 ± 1.9 h under setting [9]; 6.22 ± 0.13 h under setting [1]; 12 ± 0.33 h under setting [10]; 6.03 ± 0.071 h under setting [11]; 12.3 ± 0.35 h under setting [12].

On to “MANYFIDRPVFAWVLAIIMMLAGGLAIMNLPVAQYPQIAPPTITVSATYPGADAQTVEDSVTQVIEQNMNGLDGLMYMSSTSDAAGNASITLTFETGTSPDIAQVQVQNKLQLAMPSLPEAVQQQGISVDKSSSNILMVAAFISDNGSLNQYDIADYVASNIKDPLSRTAGVGSVQLFGSEYAMRIWLDPQKLNKYNLVPSDVISQIKVQNNQISGGQLGGMPQAADQQLNASIIVQTRLQTPEEFGKILLKVQQDGSQVLLRDVARVELGAEDYSTVARYNGKPAAGIAIKLAAGANALDTSRAVKEELNRLSAYFPASLKTVYPYDTTPFIEISIQEVFKTLVEAIILVFLVMYLFLQNFRATIIPTIAVPVVILGTFAILSAVGFTINTLTMFGMVLAIGLLVDDAIVVVENVERVIAEDKLPPKEATHKSMGQIQRALVGIAVVLSAVFMPMAFMSGATGEIYRQFSITLISSMLLSVFVAMSLTPALCATILKAAPEGGHKPNALFARFNTLFEKSTQHYTDSTRSLLRCTGRYMVVYLLICAGMAVLFLRTPTSFLPEEDQGVFMTTAQLPSGATMVNTTKVLQQVTDYYLTKEKDNVQSVFTVGGFGFSGQGQNNGLAFISLKPWSERVGEENSVTAIIQRAMIALSSINKAVVFPFNLPAVAELGTASGFDMELLDNGNLGHEKLTQARNELLSLAAQSPNQVTGVRPNGLEDTPMFKVNVNAAKAEAMGVALSDINQTISTAFGSSYVNDFLNQGRVKKVYVQAGTPFRMLPDNINQWYVRNASGTMAPLSAYSSTEWTYGSPRLERYNGIPSMEILGEAAAGKSTGDAMKFMADLVAKLPAGVGYSWTGLSYQEALSSNQAPALYAISLVVVFLALAALYESWSIPFSVMLVVPLGVVGALLATDLRGLSNDVYFQVGLLTTIGLSAKNAILIVEFAVEMMQKEGKTPIEAIIEAARMRLRPILMTSLAFILGVLPLVISHGAGSGAQNAVGTGVMGGMFAATVLAIYFVPVFFVVVEHLFARFKKA”, for which the “total protein half-life in vivo” value reads like this: under setting [2], 6.822 ± 0.011 h; under setting [4], 5.41 ± 0.53 h; under setting [5], 5.03 ± 0.059 h; under setting [1], 5.55 h; under setting [10], 12.5 ± 3.7 h; under setting [11], 5.7 ± 0.79 h. The “total protein half-life in vivo” value under setting [12] was 12.5 ± 1.6 h.
